Measurements from PMC11103113, “Evidence for dual targeting control of Arabidopsis 6-phosphogluconate dehydrogenase isoforms by N-terminal phosphorylation” (Journal of Experimental Botany, 2024).

How the values were obtained:
[1] = target: PGD2_new medial C420S (Arabidopsis thaliana) (UniProt Q9FWA3)
[2] = target: the molecule itself; test: semi-native SDS-PAGE with anti-His immunoblot; His-PGD2 variants from cleared E. coli BL21minus extracts, sample buffer without SDS and DTT and without boiling; monomer to dimer

Binder | 6PGDH activity upon GFP-based pull-down from protoplasts, relative to the corresponding wild-type version (% of the corresponding wild-type version) [1] | stoichiometry N [2]
PGD2_new medial C420S (enzyme) MAVQPTRIGLAGLAVMGQNLALNIAEKGFPISVYNRTTSKVDETVERAKKEGNLPLYGFHDPESFVKSIQKPRVIIMLVKAGSPVDQTIKTLSAYLEKGDCIVDGGNEWYENTERREKAVAENGFLYLGMGVSGGEEGARNGPSMMPGGSYEAYKNIEDIVLKVAAQVRDSGPCVTYIGKGGSGNFVKMVHNGIEYGDMQLIAEAYDVLKSVGKLSNEELHSVFSDWNKGELESFLVEITADIFGIKDDKGDGHLVDKVLDKTGMKGTGKWTVQQAAELSVPAPTIESSLDARFLSGLKDERVQAAKVFKAGGFGDILTDQKVDKKQLVDDVRKALYASKICSYAQGMNLIRAKSIEKGWGLKLGELARIWKGGCIIRAIFLDRIKQAYDRNAELANLLVDPEFAKEIIERQSAWRRVVSLAINSGISTPGMSASLAYFDSYRRERLPANLVQAQRDYFGAHTYERTDVEGSFHTEWFKIARQSKI | 80 | –
His-PGD2 wild type (full-length protein) (enzyme, Arabidopsis thaliana, UniProt Q9FWA3 1-486, looked up, Arabidopsis thaliana PGD2 (At3g02360), full-length protein, cDNA cloned in pET16b; Cloning analogous to Hölscher et al. (2016); Found as monomer and dimer on the semi-native gel; source: E. coli BL21minus (G6PDH-deficient), in cleared extract) MAVQPTRIGLAGLAVMGQNLALNIAEKGFPISVYNRTTSKVDETVERAKKEGNLPLYGFHDPESFVKSIQKPRVIIMLVKAGSPVDQTIKTLSAYLEKGDCIVDGGNEWYENTERREKAVAENGFLYLGMGVSGGEEGARNGPSMMPGGSYEAYKNIEDIVLKVAAQVRDSGPCVTYIGKGGSGNFVKMVHNGIEYGDMQLIAEAYDVLKSVGKLSNEELHSVFSDWNKGELESFLVEITADIFGIKDDKGDGHLVDKVLDKTGMKGTGKWTVQQAAELSVPAPTIESSLDARFLSGLKDERVQAAKVFKAGGFGDILTDQKVDKKQLVDDVRKALYASKICSYAQGMNLIRAKSIEKGWGLKLGELARIWKGGCIIRAIFLDRIKQAYDRNAELANLLVDPEFAKEIIERQSAWRRVVCLAINSGISTPGMSASLAYFDSYRRERLPANLVQAQRDYFGAHTYERTDVEGSFHTEWFKIARQSKI | – | 2
